# From US20180250395A1 (Janssen / Centocor, published 2018)
# Like-named read-outs stand apart in the source and are kept apart here.
# Columns and labels:
# [1] = target: CD47 ECD-C15G mutant, His-tagged (human, UniProt Q08722 19-141, N-terminus Q1 cyclized as pyroglutamate (C47B161 complex); glycans at 5, 16, 32, 55, 93 except in the endoH-deglycosylated C47B161 complex); experiment: Fab:CD47 complex isolated by chromatography and crystallized
# Experimental: The His-tagged CD47 was deglycosylated and further purified by affinity chromatography. The complex CD47:Fab was prepared by mixing Fabs with excess CD47 at a molar ratio ranging from 1.2:1.0 to 1.5:1.0. The complex was incubated overnight at 4° C., separated from the uncomplexed species using size exclusion chromatography, and concentrated to 7.5-20 mg/mL in 20 mM HEPES pH 7.4, 100 mM NaCl, 5% glycerol. The concentrated complex was then used to set up crystallization trials using the sitting drop method at 20° C. and crystals were optimized by varying the protein to reservoir ratio.
# [2] = target: T1, Cyno CD47 ECD protein, His-tagged, monomer (cyno); experiment: ProteOn SPR; cyno KD / human KD
# T1 construct: extracellular domain; also called cynomolgus CD47
# [3] = target: T1, Cyno CD47 ECD protein, His-tagged, …; experiment: ProteOn SPR; mAb captured, ECD monomer as analyte
# Experimental: (§1) Kinetic binding affinities to human CD47 and Cyno CD47 ECD proteins were determined by a Protein Interaction Array System (ProteOn). Briefly, mAbs were captured on the sensor chip via anti-IgG-Fc to reach surface density of 200-350 RU. […] The dissociation was monitored for 30 min. Data were fitted to 1:1 binding model.
# [4] = target: T2, recombinant human CD47 extracellular domain (ECD), His-tagged, monomer (human, UniProt Q08722 19-141); experiment: ProteOn SPR; mAb captured, ECD monomer as analyte
# T2 construct: C-terminal 6xHis tag; monomeric fraction from Superdex 200; also called human CD47 ECD; CD47-ECD monomer
# Experimental: as §1
# [5] = target: T3, human CD47 on Jurkat cells (human, UniProt Q08722 19-323); experiment: MSD on Jurkat cells; blocks SIRP alpha-Fc binding
# T3 construct: Endogenous CD47 of the cell lines; also called CD47-expressing Jurkat cells; CD47 on HL60 cells
# Text: The ECL signal was plotted as a function of antibody concentrations, and EC₅₀ values were obtained from fitting the dose-response curves using non-linear regression model in GraphPad Prism.
# [6] = target: T1, Cyno CD47 ECD protein, His-tagged, …; experiment: ProteOn SPR; cyno KD / human KD; remark: listed apart in the source
# Experimental: as §1
# [7] = target: T3, human CD47 on Jurkat cells; experiment: MSD on Jurkat cells; blocks SIRP alpha-Fc binding; remark: listed apart in the source
# [8] = target: T1, Cyno CD47 ECD protein, His-tagged, …; experiment: ProteOn SPR; mAb captured, ECD monomer as analyte; remark: listed apart in the source
# [9] = target: T2, recombinant human CD47 extracellular …; experiment: ProteOn SPR; mAb captured, ECD monomer as analyte; remark: listed apart in the source
# [10] = target: T1, Cyno CD47 ECD protein, His-tagged, …; experiment: ProteOn SPR; mAb captured, ECD monomer as analyte; remark: listed apart in the source
# [11] = target: T2, recombinant human CD47 extracellular …; experiment: ProteOn SPR; mAb captured, ECD monomer as analyte; remark: listed apart in the source
# [12] = target: T4, recombinant human CD47 extracellular domain (ECD), His-tagged, dimer (human, UniProt Q08722 19-141); experiment: MSD; CD47-ECD dimer binding to captured SIRP alpha-Fc, mAb 10 µg/ml
# T4 construct: Dimeric fraction of the same His-tagged ECD; also called His-tagged CD47-ECD dimer protein
# [13] = target: T1, Cyno CD47 ECD protein, His-tagged, …; experiment: ProteOn SPR; cyno KD / human KD; remark: listed apart in the source
# [14] = target: T2, recombinant human CD47 extracellular …; experiment: ProteOn SPR
Binder,binding result [1],KD Ratio Cyno/Human [2],EC50 [7] [µg/mL],Kd [8] [nM],Kd [9] [nM],also measured
"C47B167 Fab (Fab, V domains shown, His-tagged Fab from HEK293) VH: EVQLVQSGAEVKKPGESLKISCKGSGYTFTSYWMQWVRQMPGKGLEWMGEINPSNGRTDYNEKFRGQVTISADKSISTAYLQWSSLKASDTAMYYCARQGGSGYGNSYGFFDVWGQGTTVTVSS VL: EIVLTQSPATLSLSPGERATLSCRASSSVSYMHWYQQKPGQAPRLLIYDTSRLASGIPARFSGSGSGTDFTLTISSLEPEDFAVYYCQQWRSNPYTFGGGTKVEIK",binds,–,–,–,–,–
"C47B116 (antibody, human IgG2, V domains shown, hybridoma-derived, chimeric human IgG2 Fc-silent/human kappa; also called parent hybridoma mAb C47B116) VH: EVQLQQSGPELVKPGASVKISCKASGYTFTDYNMHWVKQSHGKSLEWIGDIYPYNGGTGYNQKFKSKATLTVDNSSSTAYMELRSLTSEDSAVYYCARGGWHAMDSWGQGTSVTVSS VL: DVVMTQTPLSLPVSLGDQASISCRSRQSIVHTNRYTYLAWYLQKPGQSPKLLIYKVSNRFSGVPDRFSGSGSGTDFTLKISRVEAEDLGVYYCFQGSHVPYTFGGGTKLEIK",–,0.9,0.12,0.95,1.02,Kd [3]: 0.967 nM; Kd [4]: 1.41 nM; EC50 [5]: 0.1 µg/mL; KD Ratio Cyno/Human [6]: 0.7
"C47B91 (antibody, human IgG2, V domains shown, phage-derived; also called C47M91; parent C47B91) VH: EVQLVQSGAEVKKPGESLKISCKGSGYSFTSYWIGWVRQMPGKGLEWMGIIYPGDSDTRYSPSFQGQVTISADKSISTAYLQWSSLKASDTAMYYCARVGRFASHQLDYWGQGTLVTVSS VL: EIVLTQSPATLSLSPGERATLSCRASQSVNKALAWYQQKPGQAPRLLIYGASNRATGIPARFSGSGSGTDFTLTISSLEPEDFAVYYCQQGKGWPFTFGQGTKVEIK",–,–,–,–,–,Kd [3]: 24.5 nM; Kd [4]: 15.6 nM; Kd [10]: 17.8 nM; Kd [11]: 5.95 nM; % SIRP alpha Inhibition [12]: 82.6%; EC50 [5]: 0.06 µg/mL; KD Ratio Cyno/Human [13]: 3; KD Ratio Cyno/Human [6]: 1.6
"C47B222 Fab (Fab, V domains shown, His-tagged Fab from HEK293) VH: EVQLVQSGAEVKKPGESLKISCKGSGYSFTDYWIGWVRQMPGKGLEWMGIIYPGDSDTRYSPSFQGQVTISADKSISTAYLQWSSLKASDTAVYYCARVGRFASHQLDYWGQGTLVTVSS VL: EIVLTQSPATLSLSPGERATLSCRASQSVNNRLAWYQQKPGQAPRLLIHWASTRAIGIPARFSGSGSGTDFTLTISSLEPEDFAVYYCQQGASWPFTFGQGTKVEIK",binds,–,–,–,–,–
"C47B227 Fab (Fab, V domains shown, His-tagged Fab from HEK293) VH: EVQLVQSGAEVKKPGESLKISCKGSGYSFDDYWIGWVRQMPGKGLEWMGIIYPGDSDTRYSPSFQGQVTISADKSISTAYLQWSSLKASDTAVYYCARVGRFASHQLDYWGQGTLVTVSS VL: EIVLTQSPATLSLSPGERATLSCRASQSVGSRLAWYQQKPGQAPRLLIYWASTRATGIPARFSGSGSGTDFTLTISSLEPEDFAVYYCQQGAYWPFTFGQGTKVEIK",binds,–,–,–,–,–
"C47B152 (antibody, V domains shown, HFA variant of C47B116; human IgG2sigma/kappa) VH: QVQLVQSGAEVKKPGSSVKVSCKASGYTFTDYNMHWVRQAPGQGLEWMGDIYPYNGGTGYNQKFKGRVTITADESTSTAYMELSSLRSEDTAVYYCARGGWHAMDSWGQGTLVTVSS VL: EIVLTQSPATLSLSPGERATLSCRSRQSIVHTNRYTYLAWYQQKPGQAPRLLIYKVSNRFSGIPARFSGSGSGTDFTLTISSLEPEDFAVYYCFQGSHVPYTFGGGTKLEIK",–,–,0.26,–,–,–
"C47B157 (human IgG2sigma) (antibody, V domains shown, HFA variant of C47B116; human IgG2sigma/kappa; also called IgG2 Fc-silent C47B157) VH: QVQLVQSGAEVKKPGASVKVSCKASGYTFTDYNMHWVRQAPGQGLEWMGDIYPYNGGTGYNQKFKGRVTMTRDTSTSTVYMELSSLRSEDTAVYYCARGGWHAMDSWGQGTLVTVSS VL: DIVMTQSPLSLPVTPGEPASISCRSRQSIVHTNRYTYLAWYLQKPGQSPQLLIYKVSNRFSGVPDRFSGSGSGTDFTLKISRVEAEDVGVYYCFQGSHVPYTFGGGTKLEIK",–,1.1,0.13,3.71,3.53,fold change of affinity against parent C47B116 [14]: ≤ 5 fold
"C47B161 Fab (Fab, V domains shown) VH: QVQLVQSGAEVKKPGASVKVSCKASGYTFTDYNMHWVRQAPGQRLEWMGDIYPYNGGTGYNQKFKGRVTITRDTSASTAYMELSSLRSEDTAVYYCARGGWHAMDSWGQGTLVTVSS VL: DIVMTQSPLSLPVTPGEPASISCRSRQSIVHTNRYTYLAWYLQKPGQSPQLLIYKVSNRFSGVPDRFSGSGSGTDFTLKISRVEAEDVGVYYCFQGSHVPYTFGGGTKLEIK",binds,–,–,–,–,–
"C47B161 (human IgG2sigma) (antibody, V domains shown, HFA variant of C47B116; human IgG2sigma/kappa; also called IgG2 Fc-silent C47B161) VH: QVQLVQSGAEVKKPGASVKVSCKASGYTFTDYNMHWVRQAPGQRLEWMGDIYPYNGGTGYNQKFKGRVTITRDTSASTAYMELSSLRSEDTAVYYCARGGWHAMDSWGQGTLVTVSS VL: DIVMTQSPLSLPVTPGEPASISCRSRQSIVHTNRYTYLAWYLQKPGQSPQLLIYKVSNRFSGVPDRFSGSGSGTDFTLKISRVEAEDVGVYYCFQGSHVPYTFGGGTKLEIK",–,1,0.06,2.96,2.87,fold change of affinity against parent C47B116 [14]: ≤ 5 fold
"C47B147 (antibody, V domains shown, HFA variant of C47B116; human IgG2sigma/kappa) VH: EVQLVQSGAEVKKPGESLKISCKGSGYTFTDYNMHWVRQMPGKGLEWMGDIYPYNGGTGYNQKFKGQVTISADKSISTAYLQWSSLKASDTAMYYCARGGWHAMDSWGQGTLVTVSS VL: DIVMTQSPDSLAVSLGERATINCRSRQSIVHTNRYTYLAWYQQKPGQPPKLLIYKVSNRFSGVPDRFSGSGSGTDFTLTISSLQAEDVAVYYCFQGSHVPYTFGGGTKLEIK",–,1.4,0.24,13.5,9.55,fold decrease of affinity against parent C47B116 [14]: > 6 fold
"C47B148 (antibody, V domains shown, HFA variant of C47B116; human IgG2sigma/kappa) VH: EVQLVQSGAEVKKPGESLKISCKGSGYTFTDYNMHWVRQMPGKGLEWMGDIYPYNGGTGYNQKFKGQVTISADKSISTAYLQWSSLKASDTAMYYCARGGWHAMDSWGQGTLVTVSS VL: EIVLTQSPATLSLSPGERATLSCRSRQSIVHTNRYTYLAWYQQKPGQAPRLLIYKVSNRFSGIPARFSGSGSGTDFTLTISSLEPEDFAVYYCFQGSHVPYTFGGGTKLEIK",–,–,0.09,–,–,–
"C47B151 (antibody, V domains shown, HFA variant of C47B116; human IgG2sigma/kappa) VH: QVQLVQSGAEVKKPGSSVKVSCKASGYTFTDYNMHWVRQAPGQGLEWMGDIYPYNGGTGYNQKFKGRVTITADESTSTAYMELSSLRSEDTAVYYCARGGWHAMDSWGQGTLVTVSS VL: DIVMTQSPDSLAVSLGERATINCRSRQSIVHTNRYTYLAWYQQKPGQPPKLLIYKVSNRFSGVPDRFSGSGSGTDFTLTISSLQAEDVAVYYCFQGSHVPYTFGGGTKLEIK",–,1.4,0.29,9.34,6.89,fold decrease of affinity against parent C47B116 [14]: > 6 fold
"B6H12.2 (human IgG2sigma) (antibody, V domains shown, also called IgG2 Fc-silent B6H12.2; positive control anti-CD47 mAb) VH: EVKLVESGGDLVKPGGSLKLSCAASGFTFSGYGMSWVRQTPDKRLEWVATITSGGTYTYYPDSVKGRFTISRDNAKNTLYLQIDSLKSEDTAIYFCARSLAGNAMDYWGQGTSVTVSS VL: DIVMTQSPATLSVTPGDRVSLSCRASQTISDYLHWYQQKSHESPRLLIKFASQSISGIPSRFSGSGSGSDFTLSINSVEPEDVGVYYCQNGHGFPRTFGGGTKLEIK",–,–,–,–,–,Kd [3]: 0.572 nM; Kd [4]: 0.539 nM; EC50 [5]: 0.21 µg/mL; KD Ratio Cyno/Human [6]: 1.1
"B6H12.2 Fab (Fab, V domains shown, Fab used for co-crystallization) VH: EVKLVESGGDLVKPGGSLKLSCAASGFTFSGYGMSWVRQTPDKRLEWVATITSGGTYTYYPDSVKGRFTISRDNAKNTLYLQIDSLKSEDTAIYFCARSLAGNAMDYWGQGTSVTVSS VL: DIVMTQSPATLSVTPGDRVSLSCRASQTISDYLHWYQQKSHESPRLLIKFASQSISGIPSRFSGSGSGSDFTLSINSVEPEDVGVYYCQNGHGFPRTFGGGTKLEIK",binds,–,–,–,–,–
